Source: PMC2817712

Molecular target: CheY6 (wild type) with an engineered C-terminal biotinylation tag, for SPR surfaces (R. sphaeroides)
Test: SPR; Biacore T100, 25°C; response regulator biotinylated in a C-terminal tag and held on streptavidin (200-1,500 RU); CheA3P1 injected at 120 nM to 2 mM; standard buffer (30 mM Hepes pH 7.5, 150 mM NaCl, 5 mM sodium acetate, 2 mM manganese chloride, 2 mM TCEP) with 0.05% Tween 20; equilibrium binding, 1:1 Langmuir model

CheY6 (wild type) with an engineered C-terminal biotinylation tag, for SPR surfaces (R. sphaeroides), sequence (Q8KLS1 entry or part of it, stated change not applied): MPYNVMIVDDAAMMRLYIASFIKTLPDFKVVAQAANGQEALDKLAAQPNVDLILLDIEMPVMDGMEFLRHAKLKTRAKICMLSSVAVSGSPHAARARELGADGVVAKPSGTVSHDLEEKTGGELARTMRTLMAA

CheA3P1, the isolated P1 (Hpt, histidine-containing phosphotransfer) domain of CheA3 (residues 1-135), unphosphorylated (domain or fragment)
Kd: 218 µM
